Here are results for one molecule from PMC7465474, “Interplay of Structural Disorder and Short Binding Elements in the Cellular Chaperone Function of Plant Dehydrin ERD14” (Cells, 2020).

The data set addresses T1, citrate synthase (CS) (E. coli (endogenous in AVB101), UniProt P0ABH7 1-427).
T1 sequence (looked up): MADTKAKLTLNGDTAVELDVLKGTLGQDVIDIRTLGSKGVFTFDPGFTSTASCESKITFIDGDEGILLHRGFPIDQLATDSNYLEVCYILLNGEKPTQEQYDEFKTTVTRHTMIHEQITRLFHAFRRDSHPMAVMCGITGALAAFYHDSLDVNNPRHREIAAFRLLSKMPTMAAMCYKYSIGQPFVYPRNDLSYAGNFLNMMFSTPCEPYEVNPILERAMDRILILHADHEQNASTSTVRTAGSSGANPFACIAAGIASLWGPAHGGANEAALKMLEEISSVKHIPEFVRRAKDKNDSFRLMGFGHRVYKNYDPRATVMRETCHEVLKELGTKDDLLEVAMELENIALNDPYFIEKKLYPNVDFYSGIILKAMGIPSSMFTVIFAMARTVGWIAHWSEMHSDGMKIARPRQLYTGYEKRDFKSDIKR
Nature of the data set: cell-based or functional assay.

B1: Early Response to Dehydration 14 (ERD14) of A. thaliana, wild type, biotinylated in the cell (natural protein, UniProt P42763 1-185, looked up)
chain: MAEEIKNVPEQEVPKVATEESSAEVTDRGLFDFLGKKKDETKPEETPIASEFEQKVHISEPEPEVKHESLLEKLHRSDSSSSSSSEEEGSDGEKRKKKKEKKKPTTEVEVKEEEKKGFMEKLKEKLPGHKKPEDGSAVAAAPVVVPPPVEEAHPVEKKGILEKIKEKLPGYHPKTTVEEEKKDKE
modifications: biotin (in-cell biotinylation)
For B1, the “enthalpy change of unfolding (ΔHm) of 2 μM CS, two-state fit of the CD thermal denaturation, with 2, 5 and 13 μM purified WT ERD14 (396 falling to 316 kJ/mol; CS alone 475 kJ/mol)” value was 94.6 kcal/mol; the “melting temperature (Tm) of 2 μM CS, thermal denaturation followed by CD at 220 nm, with 2, 5 and 13 μM purified WT ERD14 (50.5 to 55.3 °C; CS alone 49.5 °C)” value amounted to 55.3 °C.
